Reference: publication PMC9203827

Biological target: papain (UniProt P00784)
Chain of UniProt P00784 (P00784 134-345): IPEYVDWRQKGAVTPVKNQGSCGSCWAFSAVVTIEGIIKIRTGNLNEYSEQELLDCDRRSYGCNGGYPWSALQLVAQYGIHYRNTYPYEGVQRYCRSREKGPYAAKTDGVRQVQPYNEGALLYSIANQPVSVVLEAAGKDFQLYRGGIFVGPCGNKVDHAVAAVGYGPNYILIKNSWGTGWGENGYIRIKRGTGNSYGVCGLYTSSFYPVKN

**Q.** With “recombinant cystatin-B from the red piranha Pygocentrus nattereri (natural protein)” as the substance, how does the inhibition of papain proteolytic activity on azocasein (absorbance); rCYST-B 0-80 μg (text: μg/μL) pre-incubated with 10 μL papain (0.1 μg/μL) at 28°C for 30 min; inhibition rises from 30 μg/μL read?
**A.** Its inhibition of papain proteolytic activity on azocasein (absorbance); rCYST-B 0-80 μg (text: μg/μL) pre-incubated with 10 μL papain (0.1 μg/μL) at 28°C for 30 min; inhibition rises from 30 μg/μL is 100%.
